Values quoted from earlier work in US11878064B2, “Nanoparticle/peptide method of blocking potassium channels” (US Department of the Navy, priority 2019, dated 2024).
Where no end group is shown, it is not given here.

Target: T1, ROMK1 channels (Homo sapiens, UniProt P48048)
T1 sequence (P48048 1-391): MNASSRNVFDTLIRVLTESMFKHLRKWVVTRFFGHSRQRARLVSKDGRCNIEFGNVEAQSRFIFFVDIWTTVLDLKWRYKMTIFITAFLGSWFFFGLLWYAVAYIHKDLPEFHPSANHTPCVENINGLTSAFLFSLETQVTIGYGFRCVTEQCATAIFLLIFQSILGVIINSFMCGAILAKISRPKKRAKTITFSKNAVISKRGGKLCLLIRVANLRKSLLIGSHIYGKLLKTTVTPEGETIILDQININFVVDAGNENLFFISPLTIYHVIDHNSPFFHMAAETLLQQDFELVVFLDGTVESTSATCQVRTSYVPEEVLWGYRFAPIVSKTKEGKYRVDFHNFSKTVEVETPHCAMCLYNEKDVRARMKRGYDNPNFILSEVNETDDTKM
Settings: read-out: binding affinity

tertiapin (ALCNCNRIIIPHMCWKKCGKK; ends and bridges not checked; cysteine pairing not given here; UniProt P56587 1-21, looked up) [TPN]
Kd: ~2 nM
